Experiment: soluble on expression in E. coli; label from the status in PepcDB or PDB records
For “MRAIIIGIGQCGTKIADIFSLVDFEALAINTSKSDLEYLKHIPPERRILVGESIVGGKGVNANPLLGREAMKRDLPMVMKKISSLVGYEDVDIFFLTFGFGGGTGAGGTPVLAEALKEEYPDSLVVAIGALPLKEEGIRPTINAAITIDKLSRIVDSIIAIDNNKLKESDEDISQAYEKINYAIVERIASLLALIDVPGEQTLDASDLKFVLRAMGSFATVGYAKADATKIKSLSRLIIRSFENEGLYLDVNLESALYGLVAIHGPPEVLKAKEIFDALSELSQRIRGKQIFRGFYPDPREREVEVVTLLSGIYESKSIENIVITAKRYAREFMKAKEEGEMKKRELLKGLPDFEDIYPGEVDEG”, the “soluble on expression in E. coli” value was “soluble”. For “MRARIICGFRLVSETGSGSSSSDLTSASGASQWGNSSRSHWLKRWCASCSSAPEISNWQLSPASVSVPISARALLALPCGQCAGYATQFVMKKYYTAFQRGLPDAHVRRLEHHHHHH”, the “soluble on expression in E. coli” value was “not soluble”. For “MRDHRPTATDELIQASKLKQIQEHAKAILLINRQLQDILPKGLKTQVRAANVRGGNLVLEAASAALKMKVDYERLHILTQLRQNGFGHLISIEVRVNPELYRQSKITSEDARAANPRPPLSEHAAHVLLAIADQASDKVKKRLQSLARLAKANQKDD”, the “soluble on expression in E. coli” value was “not soluble”. With “MRDKTLKAILAHAEAEHPKECCGVVAQKSRVEKYFPCENLATNPTEQFHLDPTGYVEAEDWGTITAIVHSHPDATTQPSELDMAQCDNNELPWHIVSWPEGDLRTIQPRGDLPLVGREFVLGHTDCWGLIMSYFRQTHDIELKDYRVDRHWWESGTENFYMDNWYECGFREFSGPAQPGDLIIMQVSAPVANHGGILLEDGMLLHHPYGQLSQRVPYGGYWQERTMKVVRYEISQL” the “soluble on expression in E. coli” value was “not soluble”. In the case of “MRDLKIVNGDLSFIDYGILLVEGDLELAQSVFMILSIRLEEFKLDTSVGLESDNMFGKNYNEDYLKQDITEAILDQEPRINSIENIEIVRNNRQLNITVEMLSTLGDEVEVVIRA”, the “soluble on expression in E. coli” value is reported as “not soluble”. For “MRDMIHNISYRLMVYGTEDEEKVIEALRNVIPGATPERESAEGYHGNPITVLRGRLDRRRALREFMEKFTEVFRGRMDELEDRFDENGNLFLRLDKQKALEGVWEPVRHGDAIHLKIKVEAYPAKREVAVENIRKILE”, the “soluble on expression in E. coli” value was “not soluble”. For “MREQQPDVPPAEPANDVVAPPPLMDLGPPVNPMLPLDLPYNVVREIGIAVSSKITILLLRTPNYKLD”, the “soluble on expression in E. coli” value was “not soluble”. In the case of “MRERVCVSHCVLQRTVVCRPRTFVRERIRTQFKLVSLFITMPKSLRKRFVLVSIDDNIEQINAARKLRRYLTNNHLNHIFSSTPEEMKEYLDKLDSGTFNFRETAEEQKSVDPFSEANQPAIQMSSNQEILEKWARGTFAENSDALKLLLEPTNIEEDAVLDDHESENIVNNIPQLFMVNSMDAETPNDSIIVENGKEDQLDMAYCSLCKHEVETGRNRNTKIRKQTEHVLDAHPESEFLNVDIAKRYECVHCLRTLPVSKSPCEHISEHHDKTHVEIEFRDLWSNEQVSTFNSVMEKCFLRHLPVPRSRRIRNGNTWYLSEKASYRIVRGGEIIHISTVADKSKTDNGKESKQSRLDNSERGKPTRSMDSDYDIFDNQDETDSEEGARSESIDTGNKVSESEPGSLQSVIDLE”, the “soluble on expression in E. coli” value is reported as “not soluble”. In the case of “MRGGMGNMQKMMKQMQKMQKDMAKAQEELAEKVVEGTAGGGMVTVKANGQKEILDVIIKEEVVDPEDIDMLQDLVLAATNEALKKVDEITNETMGQFTKGMNMPGLF”, the “soluble on expression in E. coli” value is reported as “soluble”. In the case of “MRGLLILLLSLICLATPVLAQPVAAEQPLPDIRQRGFVYCVSGILNTFNPQMASSGLTVDTLAAQLYDRLLDVDPYTYRLIPELAESWQVLDNGATYRFHLRKDVPFQTTDWFTPTRMMNADDVVFSFQRVFDSKHPYHKVNGGEYPYFDSLQFASAVKSVKKLDDYTVEFKLKAPDASFLWHLATHYAPVLSSEYADVLTQKGKEEQIDREPVGTGPFLLDEYRSGQYIRLFRNSHYWKGVPRMPQVVIDLGVGGTGRLSKLLTGECDVLAYPAASQLSILRDDPPRLRLTLRPGMNVAYLAFNTRKPPLSDQRVRQAIALSINNQRLMQSIYYGTAETAASILPRASWAYDNQAQVTEYNPEKAKEILKDLGITQLQLNLWVPTASQSYNPSPLKTAELIQADLAQVGISVTIVPVEGRFQEARLMEMNHDLTLSGWSTDSNDPDSFFRPLLSCAAIRSQTNYAHWCDPAFDELLQKALRSQQLSERIEYYQQAQRILEQQLPLLPLASSLRLQAYRYDIKGLVLSPFGNSSFAGVYRESDEGKTP”, the “soluble on expression in E. coli” value is reported as “not soluble”. In the case of “MRGPLLPPTVPGWRSRAERFDMAVLEAYEPIERRWQERVSQLDIAVDEIPRIAAKDPESVQWPPEVIADGPIALARLIPAGVDVRGNATRARIVLFRKPIERRAKDTEELGELLHEILVAQVAIYLDVDPSVIDPTIDD”, the “soluble on expression in E. coli” value is reported as “soluble”. With “MRGSHHHHHHGSELSKSSIVDKVELDHTTLYQGEMTSIKVSFSDKENQKIKPGDTITLTLPDALVGMTENDSSPRKINLNGLGEVFIYKDHVVATFNEKVESLHNVNGHFSFGIKTLITNSSQPNVIETDFGTATATQRLTIEGVTNTETGQIERDYPFFYKVGDLAGESNQVRWFLNVNLNKSDVTEDISIADRQGSGQQLNKESFTFDIVNDKETKYISLAEFEQQGYGKIDFVTDNDFNLRFYRDKARFTSFIVRYTSTITEAGQHQATFENSYDINYQLNNQDATNEKNTSQVKNVFVEGEASGNQNVEMPTEESLDIPLETIDEWEPKTPTSEQATETSEKTD” the “soluble on expression in E. coli” value was “soluble”. In the case of “MRGSHHHHHHGSIQKTTIAADSSSKPRGINYDTGIPFNVLIVDDSVFTVKQLTQIFTSEGFNIIDTAADGEEAVIKYKNHYPNIDIVTLDITMPKMDGITCLSNIMEFDKNARVIMISALGKEQLVKDCLIKGAKTFIVKPLDRAKVLQRVMSVFVK”, the “soluble on expression in E. coli” value is reported as “soluble”. For “MRGSHHHHHHTDPALRAAFRMSEQPRTIKIYNLLAGTNEFIGEGDAYIPPHTGLPANSTDIAPPDIPAGFVAVFNSDESSWHLVEDHRGKTVYDVASGNALFISELGPLPENVTWLSPEGEFQKWNGTAWVKDTEAEKLFRIREAEETKNNLMQVASEHIAPLQDAADLEIATEEEISLLEAWKKYRVLLNRVDTSTAQDIEWPALPGLCGR”, the “soluble on expression in E. coli” value was “soluble”. With “MRGSHHHHHHTDPALRAKRAVVVFSGGQDSTTCLVQALQQYDEVHCVTFDYGQRHRAEIDVARELALKLGARAHKVLDVTLLNELAVSSLTRDSIPVPDYEPEADGIPNTFVPGRNILFLTLAAIYAYQVKAEAVITGVCETDFSGYPDCRDEFVKALNHAVSLGMAKDIRFETPLMWIDKAETWALADYYGKLDLVRNETLTCYNGFKGDGCGHCAACNLRANGLNHYLADKPTVMAAMKQKTGLRGLCGR” the “soluble on expression in E. coli” value was “soluble”. With “MRHCGWLLGLLSLFSLATHASDWQEIKNEAKGQTVWFNAWGGDTAINRYLDWVSGEMKTHYAINLKIVRLADAADAVKRIQTEVAAGRKTGGSVDLLWVNGENFRTLKEANLLQTGWAETLPNWRYVDTQLPVREDFSVPTEGAESPWGGAQLTFIARRDVTLQPPQTPQALLEFAKANPGTVTYPRPPDFTGTAFLEQLLIMLTPDPTALKEAPDDATFARVTAPLWQYLDALHPYLWREGKDFPPSPARMDALLKANTLRLSLTFNPAHAQQKIASGDLPASSYSFGFREGMIGNVHFVTIPANANASAAAKVVANFLLSPDAQLRKADPAVWGDPSVLDPQKLPDGQRESLQSRMPQDLPPVLAEPHAGWVNALEQEWLHRYSTH” the “soluble on expression in E. coli” value was “not soluble”. In the case of “MRHTCPKVTLRQRAIRNGRISLYLDYYPAVRNPETMQMSRREYLGIYIYAHPKNEMEREFNMDMLNKAEAIRCIRVQSLINEEFGFLDRTKMKTDFLAYFLKMCRKKDQKWRIVYQHFYNYVQGHCTFGDITIELCQGFREYLLNAKQLKRKGKVSTNSASGYYSTFRGLLKIAYRDKWLRENINDFLDKIEAKEVKKEYLTLDEVKILAQTPCEHDVLKRASLFSCLTGLRISDILNLRWEDFTLAPDQGYCIRIRTQKTSTEATLPIS”, the “soluble on expression in E. coli” value is reported as “not soluble”. With “MRHYKTLRYYETVFAVKPTLSEEEMKKKFEQVKEFIKQKGGEILYEEDWGMRQLAYPIQKFNNARYFLVQFKTENPQLPNELDFQLKIDEDVIRWLNIQIKESEVKKNAQ” the “soluble on expression in E. coli” value was “soluble”. For “MRIAANACPALVLNADFQPLSYFPLSLWSWQEAVKAVFMDRVCVVSEYDRVVHSPSLDLSLPSVISLKEYVPVAKRAAFTRFNVFLRDGFACQYCGIRLPAHDLTFDHVVPRSKGGVTAWNNVVTACGPCNMRKANRTPREAAMPLLQRPAEPSTHRLRNEGRSFPPGYLHESWRDFLYWDVELDPFLEHHHHHH”, the “soluble on expression in E. coli” value was “not soluble”. In the case of “MRIEEFDYELPEELIAKYPAVPRHSARLMVLNRKDQSIKHDTFINLPDYLEEGDLLVFNNTKVIPARLYGRKPTGGRVEVVLTDFIKPDEWKALIGGKKIRPGLVIEVAPDFKVEVLEHIEEGKFRVKLLGEEPLKLIDKYGHIPIPPYLKREEEPIDRVYYQTIFAKEKGAVASPTASLHFSEELLEKLKEKGINFAFITLHVSYGTFKPVKVERVEEHRVDPEYVKIPKETVEKIKETKEKGKRVVAVGTTVVRALETKPFEPFEGWTDLYIYPGFKFKVVDAMITNFHLPRSSLLILVSAFAGREFILKAYREAVEKRYRFYSYGDGMLIL”, the “soluble on expression in E. coli” value is reported as “soluble”. For “MRIFPVFLLTFSLFLIKEEIVTAEVKVSAPVVNQSGIKLNLERQFTGSDVAINRIHFSPDGQFLLTAAADGVGTLWTKEGEMLGQLQGQKPPMFNARLSPDRQILITTGYDGTIRLWNLQGELLEEQQPHRAAVADAIFSPDSQIIVTCSDDGQTKIFTRQGQEIASVLKSGTARNLAYHPQGLLIASVSDSGSLHLINPNGKIEREISTGQGRINNVNFSPNGEQLLTSGINGSAKLWNLAGELIHEYKVVPTGWVNSAQFYPKGEWLATASDDGTIRFWQKDGQLIYELPLVNARLTSLSFSPDGKQLAATSSQGQVWVFNLSYLEHHHHHH”, the “soluble on expression in E. coli” value was “not soluble”. With “MRIGIVGAGLGGLLAGALLSKNHEVVVFEKLPFLGGRFTNLKYEGFQLTTGALHMIPHGNDGYLAQALRKAGANVKIINSKPDGTFLINGKEYLYKELFSLLGFKEKAKAFKLATKLKLGKVDKNISFGEFLEEIDLALKVGNAFTGWALSLTAYETPMSEIIEIAKNYHKFGGPGIPIGGCKAVTDELSRIIKKNNGKIIKEYEVKRIEIDEKAYIDDYEFDVVISNISPIETQKICNIKFLKSKPKPSKGIKISIATKEGIIKHGGVLFTPECERINGLNQVTNVDKSLAPEGWHLVMTHQTQLTNNVKKEIDLGLEDIENLFKGKDYKILHIQSYRDDWPVNHASNGTDIDNIVNDRFYLVGDGAKGRGGIEVEGIAMGVLKVVNYINSLLEHHHHHH” the “soluble on expression in E. coli” value was “soluble”. With “MRIGPELLQDLLDRVEGSLAAAIGTADGLLVEGVRKRPLDLEAAIAEHAALWRQARAAYARSLGAEEVGELLVGGTGVVGYLRSMRTRDPEPLFLLLLLTPEANLGQARLAARRLLDRAGGVVAWPT” the “soluble on expression in E. coli” value was “soluble”. In the case of “MRIHILGICGTFMGGLAMLARSLGHEVTGSDANVYPPMSTLLEKQGIDLIQGYDASQLDPQPDLVIIGNAMTRGNPCVEAVLEKNIPFMSGPQWLHDFVLRDRWVLAVAGTHGKTTTAGMATWILEACGYKPGFVIGGVPGNFEVSARLGESPFFVIEADEYDCAFFDKRSKFVHYCPRTLILNNLEFDHADIFDDLKAIQKQFHHLVRIVPGQGRIIWPENDINLKQTMALGCWSEQELVGEQGHWQAKKLTTDASEWEVWLDGEKVGDVKWGLVGEHNMHNGLMAIAAARHVGVAPAEAASALGSFINARRRLELRGEANGVTVYDDFAHHPTAILATLAALRGKVGGTARIIAVLEPRSNTMKMGLCKDDLAPSLGRADEVFLLQPPHIPWQVAEVAEACVQPAHWSGDVDTLAEMVVKTAQPGDHILVMSNGGFGGIHQKLLDGLAKKAQNVTAY”, the “soluble on expression in E. coli” value is reported as “not soluble”.

From the DeepSol protein solubility set
